Measurements taken from US20080153132.

Biological target: prothrombin, P00734

B1: genetic recombinant ecarin (protein)
chain: IILGSGNVNDYEVVYPQKVTALPKGAVQQPEQKYEDAMQYEFEVKGEPVVLHLEKNKELFSEDYSETHYSSDDREITTNPSVEDHCYYHGRIQNDAESTASISACNGLKGHFKLRGETYFIEPLKIPDSEAHAVYKYENIENEDEAPKMCGVTQDNWESDEPIKKTLGLIVPPHERKFEKKFIELVVVVDHSMVTKYNNDSTAIRTWIYEMLNTVNEIYLPFNIRVALVGLEFWCNGDLINVTSTADDTLHSFGEWRASDLLNRKRHDHAQLLTNVTLDHSTLGITFVYGMCKSDRSVELILDYSNITFNMAYIIAHEMGHSLGMLHDTKFCTCGAKPCIMFGKESIPPPKEFSSCSYDQYNKYLLKYNPKCILDPPLRKDIASPAVCGNEIWEEGEECDCGSPADCRNPCCDAATCKLKPGAECGNGECCDKCKIRKAGTECRPARDDCDVAEHCTGQSAECPRNEFQRNGQPCLNNSGYCYNGDCPIMLNQCIALFSPSATVAQDSCFQRNLQGSYYGYCTKEIGYYGKRFPCAPQDVKCGRLYCLDNSFKKNMRCKNDYSYADENKGIVEPGTKCEDGKVCINRKCVDVNTAY
- N-terminal amino acid sequence of the thrombin B chain after activation: the recombinant ecarin obtained according to the present invention specifically cleaves the peptide bond at the Arg-Ile site in prothrombin like snake venom derived ecarin
- activity to cleave S-2238 (thrombin enzymatic activity after 16 hours at 37 C with 2 U/mL recombinant ecarin): the activity to cleave S-2238 was detected in prothrombin when added with the recombinant ecarin
